Assay results: patent US5985836A, “Alpha-1 proteinase inhibitor binding peptides” (Bayer Corporation, priority 1998, dated 1999)

Columns and labels:
A1PI [1] = target: T1, A1PI (Homo sapiens, UniProt P01009); experiment: A1PI binding on peptide-resin column, injection of 1 mg A1PI in equilibration buffer; conditions: 1 mg A1PI
T1 construct: Human plasma is currently the only approved source of therapeutic AlPI
Description: Confirmatory binding assays were performed in a column chromatographic format on a microbore HPLC using individual peptide sequences synthesized directly onto the Toyopearl 650 M Chelate resin which had been modified with Totda followed by an alanine residue (A-Totda-Toyopearl), at a final substitution density of 0.1 mmole/g resin. The resin was packed into 0.4×5 cm columns (Thomson, Springfield, Va.) and tested on the Michrom HPLC system (Michrom BioResources, Auburn, Calif.). The elution program for all trials utilized the following method. The column was pre-equilibrated with equilibration buffer (as above). 1 ml of sample was injected and allowed sufficient time to flowthrough the column using equilibration buffer. The column was then washed with step elutions of 1M NaCl and 3M NaCl in equilibration buffer. The column was exposed to equilibration buffer with 0.1M NaCl. Any remaining protein was eluted with elution buffer (2% by volume glacial acetic acid in water).
A Gilson FC204 fraction collector at the HPLC outlet collected individual eluates for further analysis. Fractions collected from the 2% acetic acid eluates were neutralized with 2M Tris, pH 10.5 to bring the pH to neutrality. The protein samples were reconstituted in equilibration buffer unless otherwise stated. The samples were analyzed by the integration of the absorbance at 280 nm or by immunonephelometry. The specific method of determination is presented for each figure.
Tables 2 and 3 present the elution profiles for 19 sequences based on the injection of 1 mg AlPI in equilibration buffer at 4° C. and 20° C., respectively. The columns were run at a constant flow rate of865 μl/min (413 cm/hr) or 523 μl/min (250 cm/hr). No dependence of the elution profile with flow rate was found. The Percent AlPI Eluted by Fraction represents the amount eluted in the flowthrough, 1M NaCl wash, and 2% acetic acid fractions relative to the total AlPI eluted. The percentages are based on either the integration of the peak areas at […]

A1PI [2] = target: T1, A1PI; experiment: Purification of A1PI from Effluent II+III on peptide column, A1PI mass balance; type: binding; conditions: 1 ml Eff. II+III, 4° C.; for Mass A1PI per Eluate Fraction, 1M NaCl / Mass A1PI per Eluate Fraction, 2% Acetic Acid / Mass A1PI per Eluate Fraction, Flowthrough: * Below detection limit; for Percent Eluted by Fraction, 1M NaCl / Percent Eluted by Fraction, 2% Acetic Acid / Percent Eluted by Fraction, Flowthrough: A1PI
Description: Sequences 1-11 and 15 were assayed with Effluent II+III (Eff. II+III). Eff. II+III is a process intermediate in the Cohn plasma fractionation process. The feed stream contains 20% (by volume) ethanol, 20-25 mg/ml hSA and approximately 1 mg/ml AlPI. The stream also contains other proteins including anti-thrombin III (AT3), immunoglobin G (IgG), immunoglobin A (IgA), apolipoprotein alpha-1 (Apo A-1), transferrin (Trf), haptoglobin (Hpt), and alpha-1 acid glycoprotein (AAG) at concentrations ranging from 0.1-1 mg/ml.
The columns were assayed using the same technique as the hSA+AlPI experiments, allowing for a 10 minute residence time followed by a constant flow rate of 865 μl/min with step elutions of 1M NaCl, 3M NaCl, and 2% acetic acid. All experiments were conducted at 4° C. The mass balances for the injection of 1 ml Eff. […] The AlPI was enriched from 3% of the total protein in the feed to upwards of 50% in the acid eluate.

T1 sequence (P01009 25-418): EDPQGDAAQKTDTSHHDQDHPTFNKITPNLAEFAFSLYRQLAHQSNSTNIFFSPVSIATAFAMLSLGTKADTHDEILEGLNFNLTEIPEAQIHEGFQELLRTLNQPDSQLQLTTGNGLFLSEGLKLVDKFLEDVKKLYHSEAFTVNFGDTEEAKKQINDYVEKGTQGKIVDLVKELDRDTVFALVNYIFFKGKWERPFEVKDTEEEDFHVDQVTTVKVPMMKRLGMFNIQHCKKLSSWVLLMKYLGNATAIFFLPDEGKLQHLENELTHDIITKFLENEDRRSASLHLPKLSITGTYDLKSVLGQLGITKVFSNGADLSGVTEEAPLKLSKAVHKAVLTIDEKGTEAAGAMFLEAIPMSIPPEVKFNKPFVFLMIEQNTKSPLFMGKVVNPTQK

| Substance | % of Total A1PI Eluted by Fraction (Based on Absorbance at 280 nm), 1M NaCl (A1PI [1]; Trp position mutations, 4° C.) | % of Total A1PI Eluted by Fraction (Based on Absorbance at 280 nm), 2% Acetic Acid (A1PI [1]; Trp position mutations, 4° C.) | % of Total A1PI Eluted by Fraction (Based on Absorbance at 280 nm), Flowthrough (A1PI [1]; Trp position mutations, 4° C.) | Mass A1PI per Eluate Fraction, 2% Acetic Acid (A1PI [2]; Table 11) | Mass A1PI per Eluate Fraction, Flowthrough (A1PI [2]; Table 11) | Percent Eluted by Fraction, 1M NaCl (A1PI [2]; Table 11) | Percent Eluted by Fraction, 2% Acetic Acid (A1PI [2]; Table 11) | Percent Eluted by Fraction, Flowthrough (A1PI [2]; Table 11) | % of Total A1PI Eluted by Fraction (Based on Absorbance at 280 nm), 1M NaCl (A1PI [1]; VIFLVR point mutations, 4° C.) | % of Total A1PI Eluted by Fraction (Based on Absorbance at 280 nm), 2% Acetic Acid (A1PI [1]; VIFLVR point mutations, 4° C.) | % of Total A1PI Eluted by Fraction (Based on Absorbance at 280 nm), Flowthrough (A1PI [1]; VIFLVR point mutations, 4° C.) | Mass A1PI per Eluate Fraction, 2% Acetic Acid (A1PI [2]; Table 13) | Mass A1PI per Eluate Fraction, Flowthrough (A1PI [2]; Table 13) | Percent Eluted by Fraction, 1M NaCl (A1PI [2]; Table 13) | Percent Eluted by Fraction, 2% Acetic Acid (A1PI [2]; Table 13) | Percent Eluted by Fraction, Flowthrough (A1PI [2]; Table 13) | further results |
| --- | --- | --- | --- | --- | --- | --- | --- | --- | --- | --- | --- | --- | --- | --- | --- | --- | --- |
| V I L L V R: VIWLVR with Trp at position 3 replaced by Leu (VILLVR) | 7% | 93% | 0% | 0.54 mg | 0.42 mg | 7% | 52% | 41% | – | – | – | – | – | – | – | – | Mass A1PI per Eluate Fraction, 1M NaCl (A1PI [2]; Table 11): 0.07 mg |
| V I N L V R: VIWLVR with Trp at position 3 replaced by Asn (VINLVR) | 8% | 92% | 0% | 0.53 mg | 0.44 mg | 0% | 55% | 45% | – | – | – | – | – | – | – | – | % of Total A1PI Eluted by Fraction (Based on Absorbance at 280 nm), 1M NaCl (A1PI [1]; Trp position mutations, 20° C.): 7%; % of Total A1PI Eluted by Fraction (Based on Absorbance at 280 nm), 2% Acetic Acid (A1PI [1]; Trp position mutations, 20° C.): 93%; % of Total A1PI Eluted by Fraction (Based on Absorbance at 280 nm), Flowthrough (A1PI [1]; Trp position mutations, 20° C.): 0% |
| R I F L V R: point mutation of VIFLVR, position 1 (RIFLVR) | – | – | – | – | – | – | – | – | 0% | 100% | 0% | 0.50 mg | 0.24 mg | 0% | 67% | 33% | – |
| H I F L V R: point mutation of VIFLVR, position 1 (HIFLVR) | – | – | – | – | – | – | – | – | 3% | 97% | 0% | 0.54 mg | 0.16 mg | 10% | 69% | 21% | % of Total A1PI Eluted by Fraction (Based on Absorbance at 280 nm), 1M NaCl (A1PI [1]; VIFLVR point mutations, 20° C.): 7%; % of Total A1PI Eluted by Fraction (Based on Absorbance at 280 nm), 2% Acetic Acid (A1PI [1]; VIFLVR point mutations, 20° C.): 93%; % of Total A1PI Eluted by Fraction (Based on Absorbance at 280 nm), Flowthrough (A1PI [1]; VIFLVR point mutations, 20° C.): 0%; Mass A1PI per Eluate Fraction, 1M NaCl (A1PI [2]; Table 13): 0.08 mg |
